# Reference: patent publication US12552837B2, “Bicyclic peptide ligands with detectable moieties and uses thereof” (BicycleRD Limited, priority 2017, dated 2026)
# *1 amine or outer side, *2 acyl side, *3 side chain or, on linkers, in order; H or OH if unused. Where a SMILES comes first, the peptide text is derived from it. Bridges are numbered along the chain shown (N, C = ends). Where no end group is shown, it is not given here. [ ]: non-standard residue; d: D form. The star is where a group is joined. DOTA = O=C(O)CN1CCN(CC(=O)O)CCN(CC(=O)*)CCN(CC(=O)O)CC1; 1Nal = N[C@@H](Cc1cccc2ccccc12)C(=O)O; TBMB = c1c(C[*:1])cc(C[*:3])cc1C[*:2]; hArg = N=C(N)NCCCC[C@H](N)C(=O)O; Tle = CC(C)(C)[C@H](N)C(=O)O; Aib = CC(C)(N)C(=O)O; βAla = NCCC(=O)O; Sar = CNCC(=O)O
# Columns and labels:
# xenograft tumor = test: μPET imaging with 68Ga-labelled Bicycle peptides in xenograft mice; type: in vivo; conditions: 150 pmoles
# Protocol: General method for μPET imaging: the mice were anaesthetized (2% sevoflurane, Abbott), placed into the small animal PET scanner (Inveon PET, Siemens) and injected with 68Ga-labeled Bicycle peptides. A 20 min transmission scan, a 50 min dynamic scan and a static scan from 100 to 120 min p.i. were performed. Images were reconstructed iteratively using the space alternating generalized expectation maximization method (SAGE, 16 subsets, 4 iterations) applying median root prior correction and were converted to standardized uptake value (SUV) images. Quantitation was done using a ROI (region of interest) technique and expressed as SUVmean.
# General method for radiolabeling with Ga-68: ^68Ga (half-life 68 min; β^+ 89%; Eβ+max. 1.9 MeV) was obtained from a in house ^68Ge/^68Ga generator based on pyrogallol resin support. 1 GBq ^68Ga was eluted using 5.5 M HCl. The activity was trapped on a small anion-exchanger cartridge (AG1X8, Biorad, Richmond, CA, USA) as [^68Ga]GaCl4^−. The radiogallium was eluted from the cartridge in a final volume of 300 μL ultrapure water (Merck, Darmstadt, Germany) as [^68Ga]GaCl3.
# 1 nmol Bicycle peptide in 1 μL DMSO was added to a mixture of 50 μL 0.05 M HEPES, 0.1% Tween-20, and 80 μL [^68Ga]Ga^3+ eluate (˜200 MBq). The pH of the labelling solution was adjusted to 4.2 using 30% NaOH. The reaction mixture was incubated at 98° C. for 10 minutes. The radiochemical yield (RCY) was determined using reversed-phase high performance liquid chromatography (RP-HPLC; Chromolith RP-18e, 100×4.6 mm; Merck, Darmstadt, Germany). The analytical HPLC run was performed using a linear A-B gradient (0% B to 100% B in 6 min) at a flow rate of 4 mL/min. Solvent A consisted of 0.1% aqueous TFA and solvent B was 0.1% TFA in CH3CN.
# For μPET imaging, the labelling reaction mixture was diluted in injection buffer (0.25 M Na-Acetate 0.05% Tween-20 pH 7) by a factor of 6 to obtain 150 pmoles in 100 μL injection buffer. The anaesthetized mouse (2% sevoflurane, Abbott) was injected with 100 μL of ^68Ga-labelled I-23 (˜25 MBq) and placed in a small animal PET scanner (Inveon PET, Siemens). The imaging was performed 60 min post-injection and included a 15 min transmission scan before injection and a 60 min emission scan post-injection. Scans from μPET imaging were reconstructed iteratively using the space alternating generalized expectation maximization method (SAGE, 16 subsets, 4 iterations) applying median root prior correction and were converted to standardized uptake value (SUV) images. Quantitation was accomplished using an ROI (region of interest) technique and expressed as SUVmean.
# The radiolabelling with Ga-68 was done as described before. […] Quantitation was accomplished using an ROI (region of interest) technique and expressed as SUVmean. […]
# integrin αvβ3 = integrin αvβ3 (Homo sapiens, UniProt P05106+P06756); conditions: bicyclic peptide formed with TBMB; as described in UK provisional application P2122; read-out: Ki of αvβ3 binder; cited from earlier work
# human CAIX = human CAIX (Homo sapiens, UniProt Q16790); conditions: bicyclic peptide formed with TBMB; as described in UK provisional application P2120; read-out: Kd of CAIX binder; cited from earlier work
# MT1-MMP hemopexin domain = MT1-MMP hemopexin domain (Homo sapiens, UniProt P50281); conditions: bicyclic peptide formed with TBMB; as described in WO 2016/067035; read-out: Kd of MT1-MMP binder; cited from earlier work
# Chain of integrin αvβ3 (P06756 31-889 limits assumed): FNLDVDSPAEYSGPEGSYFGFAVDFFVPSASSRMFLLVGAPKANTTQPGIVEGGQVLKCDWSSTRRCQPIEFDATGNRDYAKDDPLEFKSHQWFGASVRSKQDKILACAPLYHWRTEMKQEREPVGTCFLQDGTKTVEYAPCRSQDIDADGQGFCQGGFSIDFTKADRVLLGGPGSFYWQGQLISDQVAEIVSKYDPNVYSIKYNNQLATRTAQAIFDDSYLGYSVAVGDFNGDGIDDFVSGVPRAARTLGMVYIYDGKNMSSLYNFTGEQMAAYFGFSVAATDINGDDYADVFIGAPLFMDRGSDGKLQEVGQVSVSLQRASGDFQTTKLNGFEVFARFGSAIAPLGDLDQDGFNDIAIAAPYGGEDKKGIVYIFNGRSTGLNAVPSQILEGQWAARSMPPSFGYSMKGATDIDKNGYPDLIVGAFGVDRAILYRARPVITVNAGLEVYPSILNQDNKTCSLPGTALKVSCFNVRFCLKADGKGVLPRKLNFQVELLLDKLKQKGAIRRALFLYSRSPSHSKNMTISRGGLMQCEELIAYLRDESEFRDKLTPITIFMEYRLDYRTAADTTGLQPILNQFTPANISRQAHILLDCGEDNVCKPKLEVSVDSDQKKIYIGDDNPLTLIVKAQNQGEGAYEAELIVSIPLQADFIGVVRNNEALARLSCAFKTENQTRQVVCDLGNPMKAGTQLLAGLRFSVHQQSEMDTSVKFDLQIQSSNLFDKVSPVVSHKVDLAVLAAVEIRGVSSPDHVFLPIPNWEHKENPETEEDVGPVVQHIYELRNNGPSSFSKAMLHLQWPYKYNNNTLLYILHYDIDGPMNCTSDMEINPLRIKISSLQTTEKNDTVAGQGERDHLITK
# Chain of integrin αvβ3 (P06756 891-1048 partner limits assumed): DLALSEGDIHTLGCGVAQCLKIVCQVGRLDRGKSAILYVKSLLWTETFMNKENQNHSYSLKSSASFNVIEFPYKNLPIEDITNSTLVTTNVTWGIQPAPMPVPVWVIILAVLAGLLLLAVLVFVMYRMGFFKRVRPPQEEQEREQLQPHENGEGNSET
# Chain of integrin αvβ3 (P05106 27-788): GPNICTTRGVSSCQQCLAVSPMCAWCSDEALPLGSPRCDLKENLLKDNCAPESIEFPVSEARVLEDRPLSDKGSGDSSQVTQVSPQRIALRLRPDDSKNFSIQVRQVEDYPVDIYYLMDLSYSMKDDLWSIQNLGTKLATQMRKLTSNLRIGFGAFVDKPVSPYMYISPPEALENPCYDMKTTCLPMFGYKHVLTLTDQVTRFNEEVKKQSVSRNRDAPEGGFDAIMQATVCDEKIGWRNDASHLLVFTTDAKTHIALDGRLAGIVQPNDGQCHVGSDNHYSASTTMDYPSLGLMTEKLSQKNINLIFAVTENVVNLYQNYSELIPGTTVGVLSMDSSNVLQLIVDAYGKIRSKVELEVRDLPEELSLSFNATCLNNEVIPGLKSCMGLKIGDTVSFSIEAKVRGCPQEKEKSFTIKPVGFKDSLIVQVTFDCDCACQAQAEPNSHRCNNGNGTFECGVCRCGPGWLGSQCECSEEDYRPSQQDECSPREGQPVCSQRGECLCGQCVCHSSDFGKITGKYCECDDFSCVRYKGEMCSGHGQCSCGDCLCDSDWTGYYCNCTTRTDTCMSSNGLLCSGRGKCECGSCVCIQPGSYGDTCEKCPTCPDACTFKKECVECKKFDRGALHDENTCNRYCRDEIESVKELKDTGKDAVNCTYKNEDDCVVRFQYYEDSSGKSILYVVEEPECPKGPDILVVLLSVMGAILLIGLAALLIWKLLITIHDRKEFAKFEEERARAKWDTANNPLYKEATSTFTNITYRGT
compound,measurement,setting,value
CC(C)[C@H](NC(=O)[C@@H](CC(=O)O)NC(=O)[C@H](Cc1c[nH]cn1)NC(=O)CN(C)C(=O)CN(C)C(=O)CN(C)C(=O)CN(C)C(=O)CN(C)C(=O)CN(C)C(=O)CN(C)C(=O)CN(C)C(=O)CN(C)C(=O)CN(C)C(=O)CCNC(=O)CN1CCN(CC(=O)O)CCN(CC(=O)O)CCN(CC(=O)O)CC1)C(=O)N1CCC[C@H]1C(=O)N[C@H]1CSCc2cc3cc(c2)CSC[C@H](NC(=O)[C@H](Cc2cccc4ccccc24)NC(=O)[C@H](Cc2ccccc2)NC(=O)C(C)(C)NC(=O)CNC(=O)[C@H](Cc2cccc4ccccc24)NC(=O)C(C)(C)NC1=O)C(=O)N1CCC[C@H]1C(=O)N[C@@H](C(C)(C)C)C(=O)N[C@@H](CC(N)=O)C(=O)N[C@@H](CCCCNC(=N)N)C(=O)N1CCC[C@H]1C(=O)N[C@H](CC(=O)O)C(=O)N[C@H](C(N)=O)CSC3 [I-15] ({DOTA-βAla}-[Sar][Sar][Sar][Sar][Sar][Sar][Sar][Sar][Sar][Sar]H[dD]VPC[Aib][1Nal]G[Aib]F[1Nal]CP[Tle]N[hArg]P[dD]C-NH2; linker 15-22-29 via TBMB),liver uptake in PET imaging,xenograft tumor,clearly reduced liver uptake
same,tumor signal in PET imaging,xenograft tumor,extremely high
"Ac-CIL(HArg)PNCDLDGRCA-Sar6-(D-K) [compound 5, ""peptide 5""]",Ki,integrin αvβ3,15 nM
"βA1a-Sar10-A-CTECWVDGWVPC [compound 3, ""peptide 3""]",Kd,human CAIX,10 nM
"βAla-Sar10-A-C(D-Ala)NE(1Nal)(D-Ala)CEDFYD(tBuGLy)C ([βAla][Sar][Sar][Sar][Sar][Sar][Sar][Sar][Sar][Sar][Sar]AC[dA]NE[1Nal][dA]CEDFYD[Tle]C; linker 13-19-26 via TBMB) [17-69-07-N241, ""peptide 1 (17-69-07-N241)""]",Kd,MT1-MMP hemopexin domain,1.2 nM
